Measured values from the domain aggregation screens of Martell et al. (2025).

Assay: soluble fraction after stress (log2 fold change); higher = more stays soluble; pooled small domains, quantitative proteomics
Conditions: stress: 75 degC
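Note: 20 min heating vs room temperature control held 20 min.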

Sequence | soluble fraction (log2)
HMKTKTAPPDSIPPAWLKESATLRPDLNQAQIKASAEVFLDHHRAKGTTLADWRPAWRNWIRRERA | 0.0178
HMKTLDAFFDQARDAYKKLKKDGDIDNLKVLRNQLQTVRETQGDAVRKKSKEEYRRLVDIIDDIDGLLAAF | -0.123
HMKTLSKEDIGFLSDEAVGEMRKAVANGEMLELRALIDQVGEKNPIVAEKLLTLVKQYDYENLNRVLE | 0.102
HMKTPAPRETILSLFRQTPDGFVSGERISDELGVSRTAVWKHIRNLRQAGYQIEAIPSRGYQLQQS | -0.556
HMKTQFGTIVKQLRERKGMDQKQLGEIVGVSDKTVSSWEINRTEPKMGIVQQLADYFGVSTDYLIKG | 0.306
HMKTRQVTVRNGRIEIFDKRFSTERLVFTAANLPVLEREGEVFTAGIPDSRDFINLWARDGSFAGSVPRV | -1.96
HMKTTSYAKLLRFLRTERDLSQITVAKQLGLSRASYLALEHGSRELSLSEAVKVTTLYGIRIDDLIVNH | -3.35
HMKTTVEVSPIARPGAVASGSVKFGSGVTAEWMLDQYGRLGLDKPTGKPTEQDIKEFQIELQKAL | 0.0637
HMKVDLSEEEKTILELLKKESPQELETIKAASTLSNKKWDKAIKGLRKHNLAKVNKTDDGLFVELE | 0.234
HMKVDRLISIVLVLLDKNRISAQELADMFEVSLRTIYRDIDAIELAGIPIRSTSGVGGGFEIMPNY | -1.11
HMKVKGVYQLDNGYWGYRFTMLVNGKTVSQRRVKDESGNPFKTEKKAEKARLVAMAEEQTKANK | -2.22
HMKVMTNAELGRIIKEARIARRMTQSEVVGDFITRNMLSQIENGNAAPSMRTLQYLMDVLDIHINIE | -3.02
HMKVNIGDQVYNQMKDQIMSGVWVPGEKIPSENQLMEVFGVSRGTVRQAIQKLSAVGLLETRRGEGSYVGQ | -0.136
HMKVQLGMNTREVRGIMGKPFSEDTFVEGEKRVDVLHYKEAVRVKTQGFILTTSLRFENDSLTAI | -1.62
HMKVRVFIERSNDGYSAYMPDDNNLPFGLTGDGKTAQEAMQDFLLARDEMKEFFIEEGKEFPEVEFDFS | -0.828
HMKVSAEEQNILDALQAAGGYLPFHDKSNPEEIYEAFGISKKTFKMIIGSLYKQQKINLTQTGIQLII | 0.303
HMKVSDPEAIKLIEQAQVKVIPFLDISEAADIQIALEELKNSEGTGQTDSAKVRLRNLLSPFSYL | 0.577
HMKVSFEIEINGVTKSINSINEAKEAISELQDIMDNSTFGSEEFKNAATQIDKLQNKLVEALDK | 0.93
HMKVSVDLSMFEDDQTADRNAAVAWVVDELGAGGVDRTILMQLQSTGWSAEQSRAILDLASAGR | -0.311
HMKVTGSVQKKKGYYYIVVRLPTKNGTQYEQKQKWFNTKLKATPRNKTAAQVILAEKLTEYGGIV | -3.04
HMKVWYAGINAQRVGPMTLGAMEQQIRYGRVLFSTLIWKSPMPQWVPAGDVPELRRLLDEHMLNQMP | -0.841
HMKYFDRDLINYIQKTLAGKKIDFHEKIVPLIIELAGSDIRRVDEIIDMAEYSGKGMHVSEEMIRELAGDV | -0.715
HMKYKTKRDMILALMKKEILSGELKPRTRLLISEVASRYEVSEIPVREAFQVLIQEDLVRSTGAGFEVT | -2.36
HMKYPVYLQLADLIERKINKNEYPLGSKIPSERELIDAFGISRMTVRKAIEVLIEKGLLTRQHGKGTYVSQ | -2.26
HMKYSNDFDKVSYSLGLSIASNLISSGVKTLNAEAFNDGLATVFEGRMPEINPDEANKILQNFFEGLQKE | -0.278
HMKYSQAMIAQIIKHFHLPNNTVVTGEDVDAILLRSVDGGDGIYGGDVVSIWKYYKKQNDIQEIVT | -0.764

Sequence | soluble fraction (log2)
HMLAEEDRRRAERPGLDGNAVMVHLGIGPGRHVGEALAFLLEVRRSEGDLAVAELKSRIDAWWADR | -2.17
HMLAERKERDKAELKELILDAAKKILLKNGQEGLSIRKIATTVEYSPATIYLYFKDKDEILHELMEMG | 0.123
HMLAHSEFGARLRETRKRLGLSQSELGGDRYSGSYISHLESGRRAASAEVIEFLAGRLGVEVEELGM | -0.406
HMLAIELDDKPGSLLRALEIFAKRNLNIEYMYAFTEKRGDKAVMIFKFSDIETAKKSLLEEGFN | -2.11
HMLAKNDSGLNNHTFNAIRDALLEALADGPAEAKKLTENISFPSDKIITVIRFLADHDDRFSLEDGILSLT | -0.738
HMLAKYEIIKQDIIQMIEEKKFKPGDKIYSEGELKKIYNVSSTTVVRALQDLVLSGYLIRKQGEGTYVRK | -3.2
HMLASDYEEELSVLIKMSHKIAAGDDSLMDDFNDRVTMFESSYPINKATKDLTPVLERVNKFQT | -0.908
HMLDDDAGMIQAILRKAPGHYLPLHDKSDPASIQAQLGISKAQFKRAVGTLMKQGLIRQVKGDGLYLTQ | -0.271
HMLDDESLHFFYKKDGWEYWMKTTTENNYPIQLRKKIGDEKVQEYWNGDKEKKKIGASYFGV | -0.465
HMLDFLVSKYESELLADLLWSLGVVAVEEREATGDLVTLRTSLGDDHSFTRELVQEKFPDVIVSTAL | -1.74
HMLDIVVGSTGYALGEITDHSGTVRVNGDTWTARLVDAAGPVEDGDRVEVYAVEGTTLLVYPS | -0.619
HMLDKEDNANAGKTLLERELSRAHLSDVEHRELAQRLHLASEQELYIKIGSGDLSIIQALNRAKEFKDT | -0.0269
HMLDKRSHAKKVLDAIEAVILGRATNDQLAYTINGRSLQKTPLPDLLRLRSQYQAEYQRELRAERIRKG | -0.697
HMLDLPVKTINGKQYYYYTVKKGDTVYSLITRFGITRSDLVESNPAAADVLKTGDTLYFAVDKFG | -1.19
HMLDLYYDSEDKLLIDMGTGEVIRSFADDKRSLVFDAQAKILFDEDSGDIVYSSYFDKLITDKLASKS | -0.396
HMLDPIQEGKKMLNSRLSGFGITPNTRLMNKLLAAYNISSREEFYGRIGAGIEDLSTLREVLLKGT | -0.973
HMLDQSYYETANEIISRYPLEEKSLIPIIQDIQATYRYLPPDLLDYVAKKIGITETKAYSVASFYENFSF | -0.721
HMLDRNKLNELDAYIESFEDKPSHLIMILHRAQGLFGYLPKELQIYVAEKTGVPAAKVYGVVTFYSFFTMK | -3.42
HMLEDDTVNTAEGIKIGDSFAAVTKAYGTDYVAAGNTYAYSKDKMTLTFVMNNDKVSTISYSLLTS | 0.136
HMLEDYFKEEEYTEVLKIPKEYIKGFQYYLIEDAEFVNALRAKNKTMTLFLAKKLASDYIEIIRREQ | -2.39
HMLEIGRYNTLTVLRKVDFGYYLDGLDYGDILMPAKYAATELEAGDEVDVFIYLDSSEKLIATTETPIAQ | -4.06
HMLEIQENFQNILKRMELSLSPLERRVLALYLSGYERSEIPEKTGIPLKTFDNALHRVRNKMK | -2.36
HMLEKDIGKAITILRKSYQLSISAFSMRTGYSRVHISEVESGKRKATDELISVIRNVFHLDSNWPF | -1.52
HMLELDRTNLLGVFGSKSNPYALIMLSNGEMLKLSIGDQFLGWRVYAIDQTTVHVQNGKNQEILRIP | -1.36
HMLELLSMEDIQRTRVGDLIATVRQVDRQHALVLDRDPETGKPAVRGIFSLSQISLRLGLNI | -2.17
HMLEPGIAVLKTLMSQYRLGVADLPELGSKSNVSKLLNAVEGKKLTRQHIEALSKRFAVSPALF | -0.148

Sequence | soluble fraction (log2)
HMLEPGQKVKSVVVDISGDLIYIDLGGKTEGVVELKEFYDEAGEYHVKPGDEIEVFFVSVQNGLKRFTT | -0.0603
HMLEQISDPEVLSKLADEVLSQQEKMVMDYRKGKTAAFQGLMGQMMKKTKGKGNPAKIQEILAQKL | 0.401
HMLEQLTPRELKVLQALAQGRQNKEIAAQLVISERTVKFHVSAILSKLNVGNRTEAVTVAAQRGLISL | -1.6
HMLEQSYYEKTDEIIELHGAKASSLIPVMQDVQAEYRYLPGELLSYIADKLGIPLAKAYSVATFYENFS | -0.282
HMLERKFGTSLEIKSLSKFLIENNYKKNAKYLNKLIQVLGTRSENRIIKTFFKQFPEIENIFRNQL | -0.612
HMLETADDAKRFLGAIISEKKAENLLRVYPDIIERIVAGKPVDLSLVKGIKQKTFDKLRQKVISHYSMY | -0.0346
HMLETHRRRQIILSLLRESGMLDVDEVAARLVVSPNTIRNDFNALAAEGLLRRIRGGATLAEP | -1.45
HMLFKNASGTVVSRIQSQVDGQINIRTGSGNAPDYAFVAKPDGAVELYHNGTKQFETGSSGVLLP | -0.406
HMLFQQPATMIGKIGVAMSDLRPSGKIKIDDEWYDGQSEGDYILKGQEIIVVQVMNAYLIVRL | 0.0841
HMLFRGNGFNTLYDKQLRITQQGEFKDGRLWDGKYYRYSKAGELVRIEIYEQGRYAGNGVITDEDKA | -1.06
HMLFSDSDLKSLLDKDISYVIEMYKAASKEQKRIISDMVAQKVMEKKYIDANILIQLGELTGINYMDL | -1.33
HMLFSEKLKQAMQDLHLNQIQVVGLTGKSKGSISQYISGKQVPSEATQRDIAISLGLEENYFSKK | 0.701
HMLFYSDLVRLISFAEATLGKNEFETWYMSHHQGMKYTEIAIALGISVRTVEDRIARTKNHFRKI | -0.68
HMLGAGFDSDLTARENIFLNGALLGHSRAVMRGYYDDIVNFAELHDFMDVPVKNFSSGMTSRLAFSIATIG | 0.236
HMLGARIAALRRQAGMNQGELAKKLGISPSTVGMYEQGRREPSAEMLVRLAEAFSVSTDFLLT | -1.1
HMLGERIRRLRKEMGMSVTELARRVKTSPSYISEIEKGEKTPSLNLLVRIASELRTGIDYLTGL | -0.922
HMLGIGANVQKIAQERKISLKELSRRAGIPYTTIYNMVKRDSSRVSPENLQKLADALGVEIGKLYG | -0.24
HMLGSQQAYTDALRLTGLPVDIEVIESDRLPFLIPMRYSLDQHLIEVNVRYPDTRAIRVQQMVEELFHA | -0.631
HMLGVKKFGGEAVIAGNIILRQRGTKWITGSNVGIGKDHTLFAKIEGYVVFERMRGRDGQQQISIYP | 0.0286
HMLGYQALASAFRSKVEAGIWPIGEAIPSEARLSKEYGVAVGTIRQAIAELAEEGILIKRHGKSTMVSSG | -1.49
HMLHEFSGVVVSILADTGPSTLKQLHRSLISSDVKMDEKELMQILDEALSSGSVTSHRKGRYLYYSANK | -1.71
HMLHIKKGDTVIVNAGESKGQQGKVLEVLVGKERAIVEGVNMVSKHTKPNAKNPQGGIVKKEAPIHISNLQ | 0.154
HMLHPLLWAVDEPTPVTVRTRPEYVPDVVRWLMQPESQREHDGVVDLRYTVTHRAAFRSRIYVLGTRVTIP | 0.114
HMLIADADSLRKQIETVLANAPNEVAAYRGGKETLMGWFVGQIMRATGGKADPKLTREILAELLQ | -0.00264
HMLIADSDALRSQIESILNGNPNEVASFRAGKESLMGWFVGQVMRSTGGKADPKRTRELLQELLTK | -0.0249
